Results from patent US20210246166A1 (Bayer, published 2021).
Bridge positions count the residues as written; N and C are the ends. Square brackets hold non-standard residues; d marks the D form. Ends that are not written are not given here. (S)‑3‑(2H-tetrazol-5-yl)propanoic acid = (S)-3-(2H-tetrazol-5-yl)propanoic acid; Pro(4-spirocPr) = O=C(O)[C@@H]1CC2(CC2)CN1; Oic = O=C(O)[C@@H]1C[C@@H]2CCCC[C@@H]2N1; tBuAla = CC(C)(C)C[C@H](N)C(=O)O; Pen = CC(C)(S)[C@H](N)C(=O)O; NMeC = CN[C@@H](CS)C(=O)O; NMeA = CN[C@@H](C)C(=O)O; PEG2 = NCCOCCOCCC(=O)O; Sar = CNCC(=O)O

T1: recombinant human MASP1 active protease (amino acids 297-699, C-terminal His Tag) (human, UniProt P48740 297-699)
T1 sequence: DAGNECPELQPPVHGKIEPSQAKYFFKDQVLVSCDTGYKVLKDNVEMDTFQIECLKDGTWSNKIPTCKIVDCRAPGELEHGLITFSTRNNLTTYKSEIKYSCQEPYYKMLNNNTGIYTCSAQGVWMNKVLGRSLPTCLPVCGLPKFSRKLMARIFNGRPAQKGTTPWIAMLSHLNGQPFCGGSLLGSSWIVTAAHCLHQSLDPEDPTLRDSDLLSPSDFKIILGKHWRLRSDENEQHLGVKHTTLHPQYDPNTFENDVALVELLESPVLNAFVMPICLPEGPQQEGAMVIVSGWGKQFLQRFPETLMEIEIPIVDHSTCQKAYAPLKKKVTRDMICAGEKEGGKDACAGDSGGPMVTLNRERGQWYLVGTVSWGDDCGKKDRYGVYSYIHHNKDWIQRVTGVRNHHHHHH

B1: AIC+SRS-((tBu)A)-P-((6S)-5-Azaspiro[2.4]heptane-6-carboxylic acid)-I-(Pen)+IPD-OH (peptide)
peptide: AICSRS[tBuAla]P[Pro(4-spirocPr)]I[Pen]IPD-OH
modifications: disulfide 3-11; N-terminus assumed
SMILES: CC[C@H](C)[C@H](NC(=O)[C@H](C)N)C(=O)N[C@H]1CSSC(C)(C)[C@@H](C(=O)N[C@H](C(=O)N2CCC[C@H]2C(=O)N[C@@H](CC(=O)O)C(=O)O)[C@@H](C)CC)NC(=O)[C@H]([C@@H](C)CC)NC(=O)[C@@H]2CC3(CC3)CN2C(=O)[C@@H]2CCCN2C(=O)[C@H](CC(C)(C)C)NC(=O)[C@H](CO)NC(=O)[C@H](CCCNC(=N)N)NC(=O)[C@H](CO)NC1=O
B2: KIC+SRS-((tBu)A)-PPI-((N-Me)C)+IPD-NH2 (peptide)
peptide: KICSRS[tBuAla]PPI[NMeC]IPD-NH2
modifications: disulfide 3-11; N-terminus assumed
SMILES: CC[C@H](C)[C@H](NC(=O)[C@@H](N)CCCCN)C(=O)N[C@H]1CSSC[C@@H](C(=O)N[C@H](C(=O)N2CCC[C@H]2C(=O)N[C@@H](CC(=O)O)C(N)=O)[C@@H](C)CC)N(C)C(=O)[C@H]([C@@H](C)CC)NC(=O)[C@@H]2CCCN2C(=O)[C@@H]2CCCN2C(=O)[C@H](CC(C)(C)C)NC(=O)[C@H](CO)NC(=O)[C@H](CCCNC(=N)N)NC(=O)[C@H](CO)NC1=O
B3: AIC+SRSLP-((6S)-5-Azaspiro[2.4]heptane-6-carboxylic acid)-I-(Pen)+IPD-OH (peptide)
peptide: AICSRSLP[Pro(4-spirocPr)]I[Pen]IPD-OH
modifications: disulfide 3-11; N-terminus assumed
SMILES: CC[C@H](C)[C@H](NC(=O)[C@H](C)N)C(=O)N[C@H]1CSSC(C)(C)[C@@H](C(=O)N[C@H](C(=O)N2CCC[C@H]2C(=O)N[C@@H](CC(=O)O)C(=O)O)[C@@H](C)CC)NC(=O)[C@H]([C@@H](C)CC)NC(=O)[C@@H]2CC3(CC3)CN2C(=O)[C@@H]2CCCN2C(=O)[C@H](CC(C)C)NC(=O)[C@H](CO)NC(=O)[C@H](CCCNC(=N)N)NC(=O)[C@H](CO)NC1=O
B4: AIC+SRS-((tBu)A)-PPIC+I-NH2 (peptide)
peptide: AICSRS[tBuAla]PPICI-NH2
modifications: disulfide 3-11; N-terminus assumed
SMILES: CC[C@H](C)[C@H](NC(=O)[C@@H]1CSSC[C@H](NC(=O)[C@@H](NC(=O)[C@H](C)N)[C@@H](C)CC)C(=O)N[C@@H](CO)C(=O)N[C@@H](CCCNC(=N)N)C(=O)N[C@@H](CO)C(=O)N[C@@H](CC(C)(C)C)C(=O)N2CCC[C@H]2C(=O)N2CCC[C@H]2C(=O)N[C@@H]([C@@H](C)CC)C(=O)N1)C(N)=O
B5: RIC+SRS-((tBu)A)-PPI-((N-Me)C)+I-NH2 (peptide)
peptide: RICSRS[tBuAla]PPI[NMeC]I-NH2
modifications: disulfide 3-11; N-terminus assumed
SMILES: CC[C@H](C)[C@H](NC(=O)[C@@H]1CSSC[C@H](NC(=O)[C@@H](NC(=O)[C@@H](N)CCCNC(=N)N)[C@@H](C)CC)C(=O)N[C@@H](CO)C(=O)N[C@@H](CCCNC(=N)N)C(=O)N[C@@H](CO)C(=O)N[C@@H](CC(C)(C)C)C(=O)N2CCC[C@H]2C(=O)N2CCC[C@H]2C(=O)N[C@@H]([C@@H](C)CC)C(=O)N1C)C(N)=O
B6: AIC+SRS-((tBu)A)-P-((6S)-5-Azaspiro[2.4]heptane-6-carboxylic acid)-I-((N-Me)C)+IPD-NH2 (peptide)
peptide: AICSRS[tBuAla]P[Pro(4-spirocPr)]I[NMeC]IPD-NH2
modifications: disulfide 3-11; N-terminus assumed
SMILES: CC[C@H](C)[C@H](NC(=O)[C@H](C)N)C(=O)N[C@H]1CSSC[C@@H](C(=O)N[C@H](C(=O)N2CCC[C@H]2C(=O)N[C@@H](CC(=O)O)C(N)=O)[C@@H](C)CC)N(C)C(=O)[C@H]([C@@H](C)CC)NC(=O)[C@@H]2CC3(CC3)CN2C(=O)[C@@H]2CCCN2C(=O)[C@H](CC(C)(C)C)NC(=O)[C@H](CO)NC(=O)[C@H](CCCNC(=N)N)NC(=O)[C@H](CO)NC1=O
B7: ((N-Me)A)-IC+SRS-((tBu)A)-P-(Oic)-I-(Pen)+I-NH2 (peptide)
peptide: [NMeA]ICSRS[tBuAla]P[Oic]I[Pen]I-NH2
modifications: disulfide 3-11; N-terminus assumed
SMILES: CC[C@H](C)[C@H](NC(=O)[C@H]1NC(=O)[C@H]([C@@H](C)CC)NC(=O)[C@@H]2C[C@@H]3CCCC[C@@H]3N2C(=O)[C@@H]2CCCN2C(=O)[C@H](CC(C)(C)C)NC(=O)[C@H](CO)NC(=O)[C@H](CCCNC(=N)N)NC(=O)[C@H](CO)NC(=O)[C@@H](NC(=O)[C@@H](NC(=O)[C@H](C)NC)[C@@H](C)CC)CSSC1(C)C)C(N)=O

Target: T1, recombinant human MASP1 active protease …
Assay: cell-based or functional assay

Row | Binder | human MASP1 IC50 [nM]
1 | B1 | 1.57
2 | B2 | 1.65
3 | B3 | 1.65
4 | B4 | 1.7
5 | B5 | 1.7
6 | [Sar]ICSRS[tBuAla]PPI[Pen]IP[PEG2]-NH2 (disulfide 3-11; also: HCl salt) [((N-Me)G)-IC+SRS-((tBu)A)-PPI-(Pen)+IP-(PEG1(10 atoms))-NH2 (HCl salt)] | 1.7
7 | B6 | 1.8
8 | [Sar]ICSRS[tBuAla]PPI[Pen]IP[(S)‑3‑(2H-tetrazol-5-yl)propanoic acid]-NH2 (disulfide 3-11) [((N-Me)G)-IC+SRS-((tBu)A)-PPI-(Pen)+IP-((S)-3-(2H-tetrazol-5-yl)propanoic acid)-NH2] | 1.8
9 | B7 | 1.8

Target: recombinant human MASP2 active protease (amino acids 297-686, C-terminal His Tag) (human, UniProt O00187 297-686)
Sequence (O00187 other isoform, or with tags, fused parts or gaps limits assumed): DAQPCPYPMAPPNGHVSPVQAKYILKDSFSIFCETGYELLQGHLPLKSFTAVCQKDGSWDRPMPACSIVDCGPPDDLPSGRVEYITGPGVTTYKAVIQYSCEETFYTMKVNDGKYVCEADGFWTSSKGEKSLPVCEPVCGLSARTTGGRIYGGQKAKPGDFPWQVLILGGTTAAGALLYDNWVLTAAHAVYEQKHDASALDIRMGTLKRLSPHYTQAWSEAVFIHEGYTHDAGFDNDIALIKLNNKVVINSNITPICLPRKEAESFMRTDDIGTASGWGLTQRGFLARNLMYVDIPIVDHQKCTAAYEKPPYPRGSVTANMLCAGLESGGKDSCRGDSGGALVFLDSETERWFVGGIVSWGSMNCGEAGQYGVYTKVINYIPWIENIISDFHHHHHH
Assay: cell-based or functional assay

Row | Binder | human MASP2 IC50 [nM]
10 | B1 | 17.7
11 | B2 | 120
12 | B3 | 26
13 | B4 | 120
14 | B5 | 87
15 | [Sar]ICSRS[tBuAla]PPI[Pen]IP[PEG2]-NH2 (disulfide 3-11; also: HCl salt) [((N-Me)G)-IC+SRS-((tBu)A)-PPI-(Pen)+IP-(PEG1(10 atoms))-NH2 (HCl salt)] | 31
16 | B6 | 40
17 | [Sar]ICSRS[tBuAla]PPI[Pen]IP[(S)‑3‑(2H-tetrazol-5-yl)propanoic acid]-NH2 (disulfide 3-11) [((N-Me)G)-IC+SRS-((tBu)A)-PPI-(Pen)+IP-((S)-3-(2H-tetrazol-5-yl)propanoic acid)-NH2] | 36
18 | B7 | 76
